The values below come from the domain aggregation screens of Martell et al. (2025).

This series can be described thus: soluble fraction after stress (log2 fold change); higher = more stays soluble; pooled small domains, quantitative proteomics. Conditions: stress: pH 4. The method in brief: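 Pooled custom libraries of small protein domains were stressed at pH 4 and then measured by high-throughput quantitative proteomics. The fold change in the amount of each domain that stays soluble after the acid stress serves as a measure of aggregation propensity. Fold changes are given on a log2 scale, and higher values mean more of the domain stayed soluble.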
“HMSGPFTELTPREREILSHLAEGQSNKVIARHLQISDGTVKLHVKAILRKLEVHSRVEAAVMAVEHGV”: the “soluble fraction (log2)” value is 0.0256. For “HMSGPMVPNVVGLSEEMARALLSDYSITIKHAHDGVIPKDRVASQLPLATTHAKVGSSVVLTIS”, the “soluble fraction (log2)” value was determined as 0.238. Then “HMSGQLTEEQVKQIVTTAVKNSSGSTLTAAEVSRIVSTAVANNLTADQVKTVVNNALAGITTDISTLKA”, with 0.202; and “HMSGSFDVTLDYLNSLRNLYPAIDVEQEFRKMYAWLDSNPKNRKTERGIKRFITGWLGRAQDKAP”, with -0.9. Then “HMSGSLLQTRQRLQALTDLGHYKGDLAAAWGPEAIEALKRAQAALGITVDGKWGPETEDAIQVALQAQT”, with -0.133; and “HMSGSPREQAESEYRKAIAAVNQGRVSEATESLRAALRLDAFQVAARQLLVKLLLEAKNQDEAIQVLR”, with -0.489. As to “HMSGTMYATAEVNVRSTYSSDGTIYGTLSKGTAVEITGTTDNGWVRVKYNGTTAYVYADYLSWKAP”, the “soluble fraction (log2)” value came out at 0.144.

In the case of “HMSGYAIVNNQPGRTLNLRNSPSQSNNIIGQIPSGTRLQLISRGETWSEVIFQTTRGFVMSSFLRFET”, the “soluble fraction (log2)” value is -0.17. With “HMSHGNAALTPRQRLRLARLVVDDQWSVSAAAEFFRVSYPTAAKWARRYVELGPAGMADRSS”, the “soluble fraction (log2)” value is -0.0854.

As to “HMSHRVGDVVELTAVRMNDQGVFLDAGTGNTSDDILLHKHQMTSPVSVGDKVKVQLYLDAKNRITASMKL”, the “soluble fraction (log2)” value was -0.199. Then “HMSIEIIEITSNSSPKNLSEIIDIDATQIVADLMGLGIMKAIDTPLENSEIEQLLEKYNLIAEFVE”, with -2.51; and “HMSILEIFGRNVQKYRKEQRLSQEKLAEYAGLHRTYIGMIERAEKNITLVNIEKIAKALNINLTKLLE”, with 0.0741. With “HMSILTELDIGDKVEVVAGPFKGIQANITRIEPVRKEVTVILLDAPYQLPVTVDADYLKIIQKS”, the “soluble fraction (log2)” value is -0.0376. Then “HMSINISFEPADHLGKDVIFIRFPYDNEWIQRVRKLKGAKWSQSQRAWHVPDTEHYRTLFQLPQKI”, with -0.704; and “HMSIQDLMNSKDLSGFKVEMLSNEDIVKYKSMLQSSGFSESQAEQLALQRGLPTSELIKLRTRISDVAVT”, with 0.17. As for “HMSIQELMNSKDLSSFKVEMLSDEDIAKYKGLLQNSGLTEAQAEQMALQRGLPSSELLKLKARLSGI”, the “soluble fraction (log2)” value was found to be 0.0846. The result for “HMSIQREIILEVIKNNRTHPTAEEIYILVTKKEPKISRSTVYRNINILVEKGIIEKITIATGPDRYDY” reads -0.126; that for “HMSISDEDFAKLLDFVKEKWDAGELDNAEDIKAAISEGEKEFGVSLDESTRTTLASALQQLN”, -0.496. Then “HMSIYDAPIEDLKFSTRIFNSLKRADIHTVADLIAHSRDDLMKVRNLGATSLDELIEKLGTHGLQLADP”, with -0.356; and “HMSIYYQIYESLKKDLSNNLYKPGEKLPSENVLSKRFGVNRHTIRRSLQLLKNEGILFSKRGSGIIVHD”, with 0.359. Regarding “HMSKDKEKRTREHVLGILKKYDKVMTDKAFTVFKKMIKDESILEMELIKLINFIGERKEIRSKDVLAVVTE”, the “soluble fraction (log2)” value is -0.329.

As for “HMSKEIQNILASLPSVDVLLKQIDPIYPHGKAKEATQQVVARLRESVVDGTRKTVIDQKEVIAMIHKQLEE”, the “soluble fraction (log2)” value is -0.149. As to “HMSKETTYEVLSLKGDEWQTDTIYSDRDEAIEAARNLHGDPHIDGAKVISEVYDDKTGGSKETTIFNT”, the “soluble fraction (log2)” value was -0.21.

As for “HMSKHAIQNELEKIEGIGKQTADSLLKEFKSVKKLRTLPLSEIEKVIGKSKATIVFEALHKDK”, the “soluble fraction (log2)” value amounted to 0.0949.

As to “HMSKHATLLEALADLSVKLKPHSQLPSERALSEEYGVSRMTLRRAIDVLQARGYIYSVPSKGLFVSEP”, the “soluble fraction (log2)” value was -0.0584. In the case of “HMSKHATLLEALAELTVKLKPHTQLPSERQLSEDFGVSRMTLRRAIDVMQSRGYIYTVPSKGLYVSEP”, the “soluble fraction (log2)” value was -0.156. With “HMSKIRTFRVKTVAVDQAYQVLKDYSPIKISTESNAVIIDLDESKTPAEIAGYLEKNGIKVDNIEVIAESE”, the “soluble fraction (log2)” value was -0.148. With “HMSKISKENEQQVIQIVQTLLLNVQDKSLITTQILNEKINLAVSLDTKYKENLDRDYIIEELIRRYSVW”, the “soluble fraction (log2)” value is -2.54.

With “HMSKKIVLPAAITVKKFSETLDMPLGTVISELMKNGILATINERIDFETASIIAQDLGYEVSEEV”, the “soluble fraction (log2)” value was 0.0626. On to “HMSKKQEQALQSREKLLDAATALFAEHGYRDTSVQAIGEKAGVSRGSIFWHFGSKEGLLWAVVERAFTA”, for which the “soluble fraction (log2)” value came out at 0.346. On to “HMSKKTQKDEVVDLFLKTGNEPLHYKEISKKTGIIVHNVRRITGQNVVGKTDNPVFKRVSPGVYKLID”, for which the “soluble fraction (log2)” value was -0.0395.

“HMSKLSVSSLSSPEVQNQLKAAGIDVNSRQYQVVMKDMMGALDGRAGYTTVSAIKNRMRQYNADGDY”: the “soluble fraction (log2)” value worked out at 0.19. Take “HMSKMVEMSQEKSREKVARVKIEIQKMLDRKERVTVSGLERATGFSNSFFYRNEEVNQAVKEAQLKQ”: the “soluble fraction (log2)” value is 0.0693. Consider “HMSKNIRQQFLDVLPKTFDRNQYLETAKKLSINAKTAEGYIKKFVEANLLDHPKHNHYINLKKVEEVETK”, for which the “soluble fraction (log2)” value is -0.0789. Regarding “HMSKNYYEILGVTPDVELSQLKAVYRRLVRKYHPDINPDGELIFKDITEAYEVLSDEKQRKQYDMINGF”, the “soluble fraction (log2)” value is -0.362. Then “HMSKPILSFVDPEKDPSHYVKRYITEETYKDWFSEHFPDYTLYEGIGITQEEYRNIVNELTKP”, with -1.7. On to “HMSKPIYSELLREIRSGDVKELTLIPQRREVLVEYSDGRKATVSILANDQQVLRTAESAGVPLTVK”, for which the “soluble fraction (log2)” value is 0.116.

Regarding “HMSKPVFQTHSVRSADSATVFDVLQTLLAGTPDARIAIDPKTNAIVAWARPETQEVIAKSIMEMEG”, the “soluble fraction (log2)” value was -0.418. Turning to “HMSKQIEVPDVTDMTVSDAIDVLQDKGFVVSDEQKEVASSEIEEGRVVRTSPAVGSKRKDGTVVTLYVSI”, the “soluble fraction (log2)” value was -0.479. For the sequence “HMSKTEEIAYTTFVKYLENKDIEEVYLGNNAKIKVILKDGREMITDNPRTADFKKDLLLHDIKVVEKT”, the “soluble fraction (log2)” value is at least 0.43. As to “HMSKYGIAYSEVLEILKHIPIEDYNKIPRNEIELFETYADKDFTFNYDSSKTLEEQNVSNITKGIIIL”, the “soluble fraction (log2)” value was -0.465. Regarding “HMSLEEQNGAKDRQVEAYELLLKAQRALDQEDTAGFQAAMKDLEPLSSQLDAQGQTLYHELLPFVS”, the “soluble fraction (log2)” value is -0.246.

Turning to “HMSLGSNISRLRAEKHLSQGDLAEALDVSRQSVSKWETDGSVPDLDKLVKLSRIFGVTLDELVTGTP”, the “soluble fraction (log2)” value was 0.0988. In the case of “HMSLIHEQSLKEIRIFINNLPESLRTAFTLREQDGLSYEEISKITDTPIGTVRSRIFRARESILEHINEEL”, the “soluble fraction (log2)” value was -0.599. Take “HMSLLTPLEEARIVIEELIIPQKLTLDLLPQNSQIRKLQHEIINHYRLKGISIGDGKNRRVRIYS”: the “soluble fraction (log2)” value is -1.48. For “HMSLMHEESLKNIRRFINSLPESLRTAFTLREQDGLSYEEIGVITETPIGTVRSRIFRAREAILEHIKKEL”, the “soluble fraction (log2)” value is -0.445.

On to “HMSLMLYVEDVDTAFKKAIELGATEIRPVHDQFYGDRAGTLQDPFGHIWIIGTHKEDVSDEELNNRIGNI”, for which the “soluble fraction (log2)” value was -0.332. For the sequence “HMSLPNNLIEQLQDPEPKARRRAVRRLAATRDPSAIPLLRNVYLQDGDDRVRDAAEAALVQFRAMQHN”, the “soluble fraction (log2)” value amounted to 0.104. In the case of “HMSLPTYVQISEAIARRITAGQWLDGERLPPERTMAAEFGVAVGTLRKALSRLQDQKLLRRLQGSGNYINI”, the “soluble fraction (log2)” value is -0.264. Then “HMSLREKNKARTRTAILNAARDLAKQGQWDAITTRQIADAAGVSYQTLYNYYPSKASILVEMLL”, with -0.219. The result for “HMSLSDDIAQTLRQLGFDRDVSETLANDVLPAMPTRQDVIDLLGTLGIEKHVAADFANFVVLN” reads -1.08; that for “HMSLSEYLSAPVLEGQRNHALFSAVMQAREQGWDEWQIRTTIGAKAEADGLRHAEIAATIRSAMSREITP”, -0.0425. Turning to “HMSLSIKINHESVGLRLDQFLQEHYYKQQSRSYVQHAIKEGYILVNGQSVKNGYMLKLDDLIELEAI”, the “soluble fraction (log2)” value is -0.166. Take “HMSLSNMIGKNIQWTHVTKTKDAEGNPKTNSETFAGNVRGVKVLNGKPMVVAQDAKGKLHEVEVSEIEAIA”: the “soluble fraction (log2)” value was 0.22. For “HMSLTEDELFHALTIYANREGINIGATELKYLLTHYARNLGKLIELINQVSQAATMQKKPITIPLIKHS”, the “soluble fraction (log2)” value was -0.251. For “HMSLTGFYNLTFKQADRLSVIDEAGEEVYKQAIAMGSTTKTIDLSALNAGVYFIRIYNGEVIAQEKIVLN”, the “soluble fraction (log2)” value was -0.958. As to “HMSLTYTGKFILNHNNIDQSSFNINIYLVNKQTIIQITKPFYGNVLNIKFNEENDLIISPKQFS”, the “soluble fraction (log2)” value was -0.9.

“HMSMDPYTVLGVNKSSTDSQIKNAYKNLAKQHHPDRGGNEAKFKEISTAYEQIKTAEKRQQYDMSQQF”: the “soluble fraction (log2)” value came out at 0.389. Consider “HMSMFAQQLKDLRKKIPGLTQTDMAKKLGIAKTTYASYEQGKRTPDIETQNKIADFFNVSLDYLHG”, for which the “soluble fraction (log2)” value came out at 0.22. On to “HMSMFSEILRTLRKAKGLTQRELAGHLGVTQQMVAKWEKGQSTPGPDQLTRMAELLEVSTDTLLGR”, for which the “soluble fraction (log2)” value is -0.104. As for “HMSMNSWFVEKERDNTRIDKFLNEQMADISRSYIQKLIKDDLVTVDLRPVKANYKVKEGDRVEVTLPEPV”, the “soluble fraction (log2)” value is -0.0679. “HMSMPTITLQHYKRGSHYYASIIETFRDPVTRKNSSRTLEALGDISEKMKEDPNYLQSLKDRVKALRSD”: the “soluble fraction (log2)” value came to 0.156. As to “HMSMSLQFLSRRIRLQREKRGLKQHDIAHALQISPQAVSKWERGENAPDIALLRPLAGLLGVSIDWLMGGD”, the “soluble fraction (log2)” value was -1.7. Take “HMSNEEEIEGLVSKVLDNNPEIVERIRSGEDKLISYLVGEVMKQSSSSLNPGIVKEIIVNKTI”: the “soluble fraction (log2)” value is -0.154. On to “HMSNEITVPDLSGMSLEELETILSDRSLSYEIIDSIYNSTAKKGTVSSQDPLPDAKVKSGRTIYITVVSKL”, for which the “soluble fraction (log2)” value is -1.31.

With “HMSNENIDQDELQAIIQKVLASNQDAVAKYKAGKTAVIGFLIGQVMRQLNKKIDVALAKKTLLVFLEK”, the “soluble fraction (log2)” value was 0.0782. For “HMSNETKSAILNFAEKHHDFNIDDLFESLSKSMDINRSSLLWHLFKLVNSNVLIRTGRGMYAKV”, the “soluble fraction (log2)” value is -0.839. For “HMSNEVSYSDFVRSVESDEVNAVTLDGEQIRFVGNDGQTYSVIKPADAQITQLLIDNNVTVRAEQQ”, the “soluble fraction (log2)” value was -0.0566.

For the sequence “HMSNEYLMPNLIGMSWDEAKSKYSQYMTLVPEQEWSEVTKDQIFDQEYPEGRKVKIGTEVTVKVSMGI”, the “soluble fraction (log2)” value was determined as 0.228.
